A short description of data set [1]: Live animal FMT imaging of orthotopic Gli36Δ5 brain tumors. As to conditions: mouse, in vivo, iv, 1 nmol/g. It is filed as in vivo, mice.
In data set [2] the test system is Gli36Δ5 orthotopic brain tumors. The data set is described as above. It is filed as in vivo, mice. The conditions noted are these: representative FMT 3-dimensional reconstruction, matching ROIs, 1 nmol/g.
Data set [3] is described as follows: Live animal FMT imaging of orthotopic U87-MG brain tumors. Type of data set: in vivo, mice. The conditions noted are these: mouse, in vivo, iv, 1 nmol/g.
In data set [4] the test system is U87-MG orthotopic brain tumors. Described as above. Type of data set: in vivo, mice. The conditions noted are these: representative FMT 3-dimensional reconstruction, matching ROIs, 1 nmol/g.
In the next data set the test system is A431 cells. The data set is described as follows: Uptake in A431 cells with EGF stimulation. Type of data set: cell-based, human. As to conditions: A431 cells in the presence of the EGF ligand.
For data set [5], the target named is T1, EGFR (Homo sapiens, UniProt P00533). The data set is described as follows: Saturation binding assay on Gli36Δ5 cells.
Data set [6] concerns the target T1, EGFR. The conditions noted are these: radioligand binding assays; cited from earlier work.

Entries after “also recorded” stand apart in the source; their conditions may differ.

Consider `CC[C@H](C)[C@H](NC(=O)[C@@H](NC(=O)[C@H](CC(N)=O)NC(=O)[C@H](CCC(N)=O)NC(=O)[C@@H]1CCCN1C(=O)[C@@H](NC(=O)[C@H](Cc1ccc(O)cc1)NC(=O)CNC(=O)[C@H](Cc1ccc(O)cc1)NC(=O)[C@H](Cc1c[nH]c2ccccc12)NC(=O)[C@H](Cc1c[nH]cn1)NC(=O)[C@H](Cc1ccc(O)cc1)NC(=O)COCCOCCNC(=O)CCCCCN1C(=CC=CC=CC2=[N+](CC)c3ccc4c(S(=O)(=O)[O-])cc(S(=O)(=O)O)cc4c3C2(C)C)C(C)(C)c2c1ccc1c(S(=O)(=O)O)cc(S(=O)(=O)O)cc21)[C@@H](C)O)C(C)C)C(N)=O` [Compound 2], for which the figures for the tissue uptake dose at 1 h in data set [1] and in data set [3] were 1.1 %ID and 0.27 %ID, respectively. Besides, the “Amount of fluorescence in ROI, Gli36Δ5” value in data set [2] is 9,271 nmol/L. The “Amount of fluorescence in ROI, U87-MG” value in data set [4] is recorded as 1,608 nmol/L. Moreover, the “Uptake in A431 cells on stimulation with EGF” value in the data set on A431 cells is on record as “increasing fluorescence; also recorded: increased the level of uptake”. In the case of “Cy5.5-(AEEA)2-YHWYGYTPQNVI-amide [Compound 3]”, the “Affinity for the cells (in words)” value with EGFR [5] is given as “micromolar range”. Same read-out and setting: under “Cy5.5-(AEEA)3-YHWYGYTPQNVI-amide [Compound 4]” stands “micromolar range”; under Cy5.5-YHWYGYTPQNVI-amide [Compound 1], “micromolar range”. On to YHWYGYTPQNVI [GE11], for which, at EGFR [6], the “Binding affinity for EGFR (in words)” value is on record as “nanomolar range”.

The values are drawn from paper PMC3829608 (Molecular cancer therapeutics, 2012).
